Experimental data published in patent US20220340657A1 (L AND L BIO CO LTD NINGBO CHINA, published 2022).
Values belong to the binder of their own block, whether it stands above or below them.

Key:
human LAG-3-his [1] = target: T1, human LAG-3-his (human, UniProt P18627 23-422); assay: ELISA on coated human LAG-3, OD450 (Example 3, Example 13) [panel a]
T1 construct: range 23-422; also called hLAG-3-his; hLAG-3
T1 sequence: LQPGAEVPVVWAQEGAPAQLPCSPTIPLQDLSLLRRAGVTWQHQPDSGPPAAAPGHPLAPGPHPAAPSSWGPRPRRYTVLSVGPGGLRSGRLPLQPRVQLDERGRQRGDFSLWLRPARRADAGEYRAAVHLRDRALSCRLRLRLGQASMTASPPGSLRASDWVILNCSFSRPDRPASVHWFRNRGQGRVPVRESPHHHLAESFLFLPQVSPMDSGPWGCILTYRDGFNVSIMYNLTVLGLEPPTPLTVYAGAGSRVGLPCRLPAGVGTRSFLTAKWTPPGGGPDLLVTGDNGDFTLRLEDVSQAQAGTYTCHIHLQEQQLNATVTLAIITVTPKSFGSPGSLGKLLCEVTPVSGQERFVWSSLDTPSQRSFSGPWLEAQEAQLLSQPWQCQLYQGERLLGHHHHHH

human LAG-3-his [2] = target: T1, human LAG-3-his; assay: ELISA on human LAG3, sample kept at 37 C for 5 days
bio-LAG3-mFc [3] = target: T2, bio-LAG3-mFc (human, UniProt P18627 23-450, biotin-labelled); assay: blocking of LAG3 binding to Daudi cells
T2 construct: also called hLAG-3
T2 sequence (looked up): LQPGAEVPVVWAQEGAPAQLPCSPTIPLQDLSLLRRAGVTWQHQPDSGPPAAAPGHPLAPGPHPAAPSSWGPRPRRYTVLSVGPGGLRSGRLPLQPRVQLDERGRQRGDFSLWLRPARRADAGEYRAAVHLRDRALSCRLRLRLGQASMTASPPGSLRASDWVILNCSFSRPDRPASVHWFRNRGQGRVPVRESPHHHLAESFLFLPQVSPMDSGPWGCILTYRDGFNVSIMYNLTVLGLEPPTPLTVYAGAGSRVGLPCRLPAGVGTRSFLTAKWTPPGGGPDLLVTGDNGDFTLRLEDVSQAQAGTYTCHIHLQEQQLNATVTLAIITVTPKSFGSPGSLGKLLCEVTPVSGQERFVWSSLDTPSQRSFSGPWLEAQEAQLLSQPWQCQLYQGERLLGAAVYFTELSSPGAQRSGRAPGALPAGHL
Method: The Daudi cell line (ATCC, CCL-213) was expanded and seeded into 96-well microplate at a density of 2×10⁵ cells/well, and then centrifuged at 1600 rpm for 10 min; thereafter the cells were fixed with 100 μl/well of a fixative solution for immunostaining (Shanghai Beyotime Biotechnology Co., Ltd., Cat. No.: P0098) for half an hour at room temperature. After washing with PBS (BasalMedia Biology, Cat. No.: B320) once, 5% milk was added with 230 μl per well, and the microplate was incubated for 2 hours at 37° C. for blocking, then was washed three times with PBST. […] The microplate was then incubated for 1 hour at 37° C. and washed 5 times with PBST. 50 μl/well of 1:1000 diluted streptavidin-HRP secondary antibody (GenScript, Cat. No.: M00091) was added to the microplate and incubated for 1 hour at 37° C. After washing the microplate 5 times with PBST, 50 μl/well TMB (Surmodic, Cat. No.: TTMB-1000-01) was added to the microplate for color development, and 50 μl/well 1M H₂SO₄ was added to stop the reaction. The microplate was then read by a microplate reader (MuitiskanGo Thermo, model 511919200), and the data were analyzed using GraphPad prism 5.

human PD-1 (hFc/his tag) [4] = target: T3, human PD-1 (hFc/his tag) (human, UniProt Q15116 21-167); assay: ELISA on human PD-1
T3 construct: range 21-167; not shown: hFc or his tag

Bio-LAG-his = target: T4, Bio-LAG-his (UniProt P18627 23-450, biotin-labeled); assay: double-sandwich ELISA: plate coated with PD-1, bispecific titrated, detected with Bio-LAG-his
T4 construct: Detection reagent of the double-sandwich ELISA; also called biotin-labeled LAG-3-his (ACROBiosystems); not shown: his tag of the bought product
T4 sequence (looked up): T2 sequence (looked up)
Method: Finally, 50 μl/well of 1M H₂SO₄ was added to stop the reaction.

human LAG-3-his [5] = target: T1, human LAG-3-his; assay: ELISA on human LAG-3
human PD-1 (hFc/his tag) [6] = target: T3, human PD-1 (hFc/his tag); assay: blocking of PD-1 binding to PD-L1
human PD-1 (hFc/his tag) [7] = target: T3, human PD-1 (hFc/his tag); assay: ELISA on human PD-1, sample kept at 37 C for 5 days
human LAG-3-his [8] = target: T1, human LAG-3-his; assay: ELISA on human LAG3, sample stored at -80 C for 60 days; sample stored at -80 C for 60 days (reference value in brackets)
human PD-1 (hFc/his tag) [9] = target: T3, human PD-1 (hFc/his tag); assay: ELISA on human PD-1, sample kept at 37 C for 10 days
human PD-1 (hFc/his tag) [10] = target: T3, human PD-1 (hFc/his tag); assay: ELISA on coated human PD-1, OD450 (Example 13) [panel b]
human LAG-3-his [11] = target: T1, human LAG-3-his; assay: ELISA on human LAG3, sample kept at 37 C for 10 days
human PD-1 (hFc/his tag) [12] = target: T3, human PD-1 (hFc/his tag); assay: ELISA on human PD-1, sample stored at -80 C for 60 days
human LAG-3-his [13] = target: T1, human LAG-3-his; assay: ELISA on human LAG3, sample stored at -80 C for 60 days
human LAG-3-his [14] = target: T1, human LAG-3-his; assay: ELISA on hLAG-3
Method: (§1) After discarding the liquid, a blocking solution of 5% skimmed milk (Bright skimmed milk powder) diluted with PBS was added at 230 μl per well, followed by incubating at 37° C. for 3 hours or 4° C. overnight (16-18 hours) for blocking. Subsequently, the blocking solution was discarded, and the micropiate was washed 5 times with PBST buffer (pH 7.4 PBS containing 0.05% tweeen-20). Then 50 μl/well of the supernatant (containing the antibody to be tested) or a starting concentration of 10 μg/ml of the antibody to be tested, which was diluted 5 times in gradient, was added, followed by incubating the mixture for 1 hour at 37° C. […] After washing the microplate 5 times with PBST, 50 μl/well TIMB chromogenic substrate (KPL, Cat. No.: 52-00-03) was added, and then incubated for […] at room temperature. Finally, 50 μl/well of 1 M H₂SO₄ was added to stop the reaction. The absorbance value at 450 nm was read by […] GO microplate reader (ThermoFisher, Cat. No.: 51119200). The clones with high affinity were selected according to the OD value or the EC₅₀ value was calculated (for antibodies with known concentrations).

bio-LAG3-mFc [15] = target: T2, bio-LAG3-mFc; assay: blocking ELISA, LAG-3 on Daudi cells
human LAG-3-his [16] = target: T1, human LAG-3-his; assay: ELISA on coated human LAG-3-his, anti-human HRP, OD450 (Example 3) [panel a]
Method: as §1

bio-LAG3-mFc [17] = target: T2, bio-LAG3-mFc; assay: blocking ELISA on fixed Daudi cells: antibody titrated against bio-LAG3-mFc binding to Daudi cells (MHC II), streptavidin-HRP, OD450 (Example 4) [panel b]
bio-LAG3-mFc [18] = target: T2, bio-LAG3-mFc; assay: blocking ELISA, LAG-3 on Daudi cells; remark: listed apart in the source
human LAG-3-his [19] = target: T1, human LAG-3-his; assay: ELISA on hLAG-3; remark: listed apart in the source
Method: as §1

T3 sequence (Q15116 21-167, form in doubt): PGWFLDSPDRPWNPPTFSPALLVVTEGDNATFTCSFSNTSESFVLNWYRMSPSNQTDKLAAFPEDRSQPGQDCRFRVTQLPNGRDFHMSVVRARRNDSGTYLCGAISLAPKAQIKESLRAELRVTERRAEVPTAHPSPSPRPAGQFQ

EC50 (read off the curve) (human LAG-3-his [1]): ~0.2 nM
EC50 (human LAG-3-his [2]): 0.251 nM
IC50 (bio-LAG3-mFc [3]): 77.5 nM
EC50 (human PD-1 (hFc/his tag) [4]): 0.128 nM
EC50 (Bio-LAG-his): 1.09 nM
EC50 (human LAG-3-his [5]): 0.179 nM
IC50 (human PD-1 (hFc/his tag) [6]): 0.268 nM
EC50 (human PD-1 (hFc/his tag) [7]): 0.293 nM
EC50 (human LAG-3-his [8]): 0.298 nM
EC50 (human PD-1 (hFc/his tag) [9]): 0.324 nM
EC50 (read off the curve) (human PD-1 (hFc/his tag) [10]): ~0.1 nM
EC50 (human LAG-3-his [11]): 0.392 nM
EC50 (human PD-1 (hFc/his tag) [12]): 0.227 nM
EC50 (human LAG-3-his [13]): 0.298 nM
B1: bispecific antibody (SBody) LB2371 (bispecific antibody, human IgG4 S228P, kappa)
light: EIVLTQSPATLSLSPGERATLSCRASKGVSTSGYSYLHWYQQKPGQAPRLLIYLASYLESGVPARFSGSGSGTDFTLTISSLEPEDFAVYYCQHSRDLPLTFGGGTKVEIKRTVAAPSVFIFPPSDEQLKSGTASVVCLLNNFYPREAKVQWKVDNALQSGNSQESVTEQDSKDSTYSLSSTLTLSKADYEKHKVYACEVTHQGLSSPVTKSFNRGEC
heavy: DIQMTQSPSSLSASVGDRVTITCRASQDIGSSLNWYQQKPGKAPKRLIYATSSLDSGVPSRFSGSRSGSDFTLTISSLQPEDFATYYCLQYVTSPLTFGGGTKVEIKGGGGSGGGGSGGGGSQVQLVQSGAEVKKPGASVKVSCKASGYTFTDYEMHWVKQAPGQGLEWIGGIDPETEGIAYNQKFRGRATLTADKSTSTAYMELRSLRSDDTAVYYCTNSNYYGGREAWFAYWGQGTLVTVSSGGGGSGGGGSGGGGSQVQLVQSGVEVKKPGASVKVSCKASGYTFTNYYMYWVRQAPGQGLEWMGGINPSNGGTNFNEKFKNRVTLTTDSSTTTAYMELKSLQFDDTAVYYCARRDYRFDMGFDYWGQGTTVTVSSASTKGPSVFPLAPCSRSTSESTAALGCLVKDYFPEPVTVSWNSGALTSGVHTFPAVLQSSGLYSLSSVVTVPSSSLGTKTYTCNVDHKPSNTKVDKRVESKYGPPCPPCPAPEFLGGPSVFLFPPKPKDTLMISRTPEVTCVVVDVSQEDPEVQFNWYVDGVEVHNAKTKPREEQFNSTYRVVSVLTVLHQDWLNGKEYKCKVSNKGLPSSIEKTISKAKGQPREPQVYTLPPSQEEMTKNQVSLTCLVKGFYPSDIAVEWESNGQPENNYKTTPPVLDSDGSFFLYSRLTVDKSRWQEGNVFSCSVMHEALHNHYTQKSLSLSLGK
notes: Ab2317VL-(G4S)3-Ab2317VH-(G4S)3-PemVH-Hc (hIgG4)

EC50 (human LAG-3-his [14]): 0.166 nM
IC50 (bio-LAG3-mFc [15]): 1.55 nM
EC50 (read off the curve) (human LAG-3-his [16]): ~0.4 nM
IC50 (read off the curve) (bio-LAG3-mFc [17]): ~2 nM
IC50 (bio-LAG3-mFc [18]): 2.3 nM
fold better IC50 than Ref (bio-LAG3-mFc [18]): ~4 fold
EC50 (human LAG-3-his [19]): 0.41 nM
B2: chimeric antibody mab23c (antibody, human IgG4 S228P, kappa, V domains shown)
VH: QVQLQQSGAELVRPGASVTLSCKASGYTFTDYEMHWVKQTPVHGLEWIGGIDPETEGIAYNQKFRGKAILTADKSSITAYMELRSLTSEDSAVYYCTNSNYYGGREAWFAYWGQGTLVTVSG
VL: DIQMIQSPSSLSASLGERVSLTCRASQDIGSSLNWLQQEPDGTIKRLIYATSSLDSGVPKRFSGSRSGSDYSLTISSLESEDFVDYYCLQYVTSPLTFGAGTKLELKR
notes: hIgG4
